# Source: patent publication US20160009801A1 (EMORY UNIVERSITY, published 2016)
# T1: wild-type murine GPIba on WT (C57BL/6J) mouse platelets (mouse, UniProt O35930 17-734)
# T1 construct: whole, on cells; also called mouse GPIba; WT mouse platelets
# T1 sequence (looked up): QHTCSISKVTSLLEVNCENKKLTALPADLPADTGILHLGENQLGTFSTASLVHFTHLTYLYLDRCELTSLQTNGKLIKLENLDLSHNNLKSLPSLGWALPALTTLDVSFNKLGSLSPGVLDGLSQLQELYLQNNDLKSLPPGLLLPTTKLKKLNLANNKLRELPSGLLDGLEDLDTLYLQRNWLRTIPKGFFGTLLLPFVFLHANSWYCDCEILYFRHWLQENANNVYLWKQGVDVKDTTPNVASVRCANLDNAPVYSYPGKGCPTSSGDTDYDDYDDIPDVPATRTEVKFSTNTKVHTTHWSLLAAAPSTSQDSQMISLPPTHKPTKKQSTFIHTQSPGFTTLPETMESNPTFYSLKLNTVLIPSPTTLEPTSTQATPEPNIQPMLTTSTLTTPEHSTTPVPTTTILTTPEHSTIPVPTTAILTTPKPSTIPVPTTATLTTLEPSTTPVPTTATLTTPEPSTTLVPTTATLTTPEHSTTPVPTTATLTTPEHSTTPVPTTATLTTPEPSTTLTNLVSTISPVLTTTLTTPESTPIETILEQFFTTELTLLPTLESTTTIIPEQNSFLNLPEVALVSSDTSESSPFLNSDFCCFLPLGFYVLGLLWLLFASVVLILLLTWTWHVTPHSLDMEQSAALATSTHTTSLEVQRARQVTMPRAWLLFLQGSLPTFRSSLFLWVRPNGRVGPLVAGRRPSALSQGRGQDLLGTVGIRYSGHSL
# Columns and labels:
# [1] = biological target: T2, human glycoprotein Ib alpha (GPIba) on platelets (human, UniProt P07359 17-652); experiment: flow cytometry on washed human platelets, FITC goat anti-mouse IgG
# T2 construct: whole, on cells; On platelets GPIba is part of the GPIb-IX-V complex; also called human GPIba; washed human platelets
# [2] = biological target: T3, purified human GPIb-IX complex (human, UniProt P07359 17-652; P13224 26-206; P14770 17-177); experiment: ELISA, purified mAb titrated on immobilized purified human GPIb-IX, fitted Kd
# T3 construct: mature; Native complex purified from outdated human apheresis platelets; also called purified human glycoprotein (GP)Ib-IX; immobilized GPIb-IX
# Method: (A, C, D) GPIb-IX or the peptide was immobilized in microtiter plates. Purified mAbs, each identified by the clone name and colored as indicated, and negative controls, in the form of mouse IgG or BSA, were added to the coated wells. The bound Ab was detected with biotinylated goat anti-mouse IgG. Data are presented as the mean SD (n=3).
# After incubation in the blocking buffer (20 mmol L⁻¹ HEPES, 0.2 mol L⁻¹ NaCl, 0.05% Tween-20, 2% BSA, pH 7.4) at room temperature (RT) for 2 h, different doses of normal mouse IgG or purified mAb dissolved in the blocking buffer were added to the wells and incubated for 1 h. The wells were then washed three times with the blocking buffer without BSA and incubated for an additional 1 h with biotinylated goat anti-mouse IgG (1:50 in the blocking buffer). After three washes, the wells were incubated for 1 h with streptavidin alkaline phosphatase (1:2000 in the blocking buffer).
# [3] = biological target: T1, wild-type murine GPIba on WT (C57BL/6J) …; experiment: flow cytometry, biotin-labeled 5G6 on mouse whole blood, gated on platelets, FITC-streptavidin
# Method: The binding to platelets was analyzed by flow cytometry with gating specific on platelets.
binding result [1],Kd [2],binding result [3],Binder
binds,–,–,"monoclonal antibody 3D1 (antibody, V domains shown, Mouse hybridoma mAb; also called 3D1.C1; 3D1.E3) VH: QIQLVQSGPELKKPGETVKISCKASGYTFTDFAMHWVKQAPRKGLKWMGWINTETGEPTYADDFKGRFAFSLGTSASTAFLQINNLKNEDTATYFCSSDPLDYWGQGTTLTVSS VL: DVVVTQTPLSLPVSFGDQVSISCRSSQSLTNSYGNTYLSWFLHKPGQSPQLLIYEISNRFSGVPDRFSGSGSGTDFTLKISTIKPEDLGIYYCLQGTHQPWTFGGGTKLEIK"
–,0.00329 µM,no binding (tested: 4 µg mL^-1),"monoclonal antibody 5G6 (antibody, V domains shown, Mouse hybridoma mAb raised against the human GPIba Glu455-Phe478 peptide; also called clone 5G6; 5G6.B4) VH: QVTLKESGPGILQPSQTLSLTCSFSGFSLSTSNMGVVWIRQPSGKGLEWLLHILWNDGKFYNPALKSRLTISKDTYNNQVFLKIANVDTADTATYYCARLFTTTTSGYFDVWGAGTTVTVSS VL: DIQMTQSPASLSASVGETVTITCRASGNIYNYLAWYQQKQGKSPQLLVYNAKTLADGVPSRFSGSGSGTQYSLKINSLQPEDFGSYFCQHFWDTPWTFGGGTKLEIK"
–,0.0282 µM,–,"monoclonal antibody 15C6 (antibody, V domains shown, Mouse hybridoma mAb; also called 15C6.D3) VH: QVTLKESGPGILQPSQTLSLTCSFSGFSLSTSNMGVVWIRQSSGKGLEWLLHILWNDGKFYNPALKSRLTISKDTYNNQVFLKIANVDTADTATYYCARLFSTTTSGYFDVWGAGTTVTVSS VL: DIQMTQSPASLSASVGETVTITCRASGNIHNYLAWYQQKQGKSPQLLVYNAETLADGVPSRFSGSESGTQYSLKINSLQPEDFGTYYCQHFWDTPWTFGGGTKLEIK"
